Source: patent publication EP2019137A1

Molecular target: wild-type SPW1 protein (SUPERWOMAN1, AP3-type class-B MADS-box protein of rice), M, I and K domains, yeast two-hybrid construct (rice (Oryza sativa))
Test: yeast two-hybrid, LacZ reporter

binding relative to OsMADS2wt with SPW1^wt (fold of OsMADS2wt-SPW1^wt binding): 0.5
Substance: V45T mutant-type protein of OsMADS2, M, I and K domains, yeast two-hybrid construct
